Patent US20220396825A1, “METHOD FOR PREPARING […]” (KAO CORPORATION, priority 2019, published 2022)

Tested on: fragments of sample DNA (genomic DNA of TA100 strain)
Assay: Error reduction by single-strand-specific nuclease treatment of DNA fragments (DMSO-exposed library)
Assay type: biochemical, Salmonella typhimurium
Procedure: From DNA derived from the DMSO-exposed cells or the 3-MC-exposed cells, a plurality of samples each of which was to give 60 ng or 100 ng of DNA were prepared, and the samples were each fragmented into pieces having a length of approximately 350 bp on average by using a DNA Shearing System ME220. The fragments of each sample were divided into two groups. For the group without nuclease treatment (nontreatment group), the DNA fragments were suspended in Resuspension buffer attached to the TruSeq for End Repair in the subsequent step in accordance with the recommended protocol to afford 60 μL of eluate. For the group with nuclease treatment (treatment group), the DNA fragments were purified through steps of adsorbing on Sample Purification Beads attached to the TruSeq (hereinafter, also expressed as beads, simply), washing twice with 80% ethanol water, and drying in accordance with the recommended protocol. In the subsequent elution operation, the beads were suspended in distilled water (DW, produced by NIPPON GENE CO., LTD.) to afford 30 μL of DNA eluate containing DNA fragments.
S1 nuclease (Promega Corporation, catalog No.: M5761), Mung Bean Nuclease (MBN) (Takara Bio Inc., catalog No.: 2420A), or RecJf (New England Biolabs, catalog No.: M0264L) was used as the single-strand-specific nuclease. The activity values (numbers of units) of the enzymes were defined as follows. • S1 nuclease: an enzymatic activity such that 1 μg of acid-soluble substance is generated per minute at 37° C. in a mixed solution of 30 mM sodium acetate (pH 4.6, 25° C.), 50 mM NaCl, 1 mM ZnCl2, 5% glycerol, and 0.5 mg/mL denatured calf thymus DNA was defined as 1 U. • MBN: an enzymatic activity such that 1 μg of acid-soluble decomposition product is generated per minute at 37° C. and pH 5.0 with thermally denatured calf thymus DNA as a substrate was defined as 1 U. • RecJf: an amount of the enzyme necessary for generating 0.5 ng of deoxyribonucleotide soluble in trichloroacetic acid per minute at 37° C. in 50 μL of whole reaction solution (containing 1×NE Buffer 2 and 1.5 μg of sonicated [^3H]-labeled single-stranded E. coli DNA) was defined as 1 U.
To the DNA eluate obtained in I), 4 μL of 10× Reaction Buffer attached to the S1 nuclease was added. The S1 nuclease was appropriately diluted with 1× Reaction Buffer, 1, 3, 10, 30, 100, or 300 U thereof was added to the DNA eluate, and DW was added thereto to a total volume of 40 μL. For the sample to which 1000 U of the S1 nuclease was to be added, 4.6 μL of 10× Reaction Buffer was added to 30 μL of the DNA eluate obtained by beads purification, and 12 μL of the stock solution of the S1 nuclease was added thereto to a total volume of 46 μL. Each reaction solution with the S1 nuclease was incubated at 30° C. for 30 minutes. Assuming that the whole amount of DNA (60 ng) present at the beginning of library preparation existed in each reaction solution, the numbers of units of the S1 nuclease per 1 ng of DNA were 0.02, 0.05, 0.17, 0.50, 1.67, 5.00, and 16.7 U/ng. For inactivation of the S1 nuclease in each reaction solution, 3 μL of 0.5 M EDTA (pH 8.0) (produced by NIPPON GENE CO., LTD.) was added, and the resultant was incubated at 70° C. for 10 minutes. To purify DNA from the inactivated reaction solution, beads attached to the TruSeq in an amount equal to that of the reaction solution were added and a purification operation was carried out in accordance with the recommended protocol, and the resultant was suspended in Resuspension buffer attached to the TruSeq to afford 60 μL of eluate (S1 nuclease treatment group). […]
To the DNA eluate obtained in I), 5 μL of 10×NE Buffer 2 attached to the RecJf was added. The RecJf was appropriately diluted with 1×NE Buffer 2, and 3, 10, 30, or 100 units thereof was added to the DNA eluate to a total volume of 50 μL. Each reaction solution with the RecJf was stirred, and incubated at 37° C. for 60 minutes. […]

B1: S1 nuclease: single-strand-specific endonuclease (Promega Corporation, catalog No.: M5761) (protein, UniProt P24021 21-287, looked up)
Nuclease S1: WGNLGHETVAYIAQSFVASSTESFCQNILGDDSTSYLANVATWADTYKYTDAGEFSKPYHFIDAQDNPPQSCGVDYDRDCGSAGCSISAIQNYTNILLESPNGSEALNALKFVVHIIGDIHQPLHDENLEAGGNGIDVTYDGETTNLHHIWDTNMPEEAAGGYSLSVAKTYADLLTERIKTGTYSSKKDSWTDGIDIKDPVSTSMIWAADANTYVCSTVLDDGLAYINSTDLSGEYYDKSQPVFEELIAKAGYRLAAWLDLIASQPS
Error reduction rate, GC to CG (S1 nuclease 0.02 U/ng): 30.4%
Error reduction rate, GC to TA (S1 nuclease 0.02 U/ng DNA in reaction solution): 52.8%
Error reduction rate, GC to CG (S1 nuclease 0.05 U/ng): 50.6%
Error reduction rate, GC to TA (S1 nuclease 0.05 U/ng): 35.3%
Error reduction rate, GC to CG (S1 nuclease 0.17 U/ng): 84.9%
Error reduction rate, GC to TA (S1 nuclease 0.17 U/ng): 83.1%
Error reduction rate, GC to CG (S1 nuclease 0.50 U/ng): 87.5%
Error reduction rate, GC to TA (S1 nuclease 0.50 U/ng): 69.9%
Error reduction rate, GC to CG (S1 nuclease 1.67 U/ng): 86.0%
Error reduction rate, GC to TA (S1 nuclease 1.67 U/ng): 81.7%
Error reduction rate, GC to CG (S1 nuclease 5.00 U/ng): 98.3%
Error reduction rate, GC to TA (S1 nuclease 5.00 U/ng): 84.5%
Error reduction rate, GC to CG (S1 nuclease 16.7 U/ng): 98.1%
Error reduction rate, GC to TA (S1 nuclease 16.7 U/ng): 79.6%
